Assay results from patent publication US20230136301A1, “Corticosteriod Reduction in Treatment with Anti-CD38 Antibody” (Janssen Biotech, Inc., priority 2021, published 2023).
Several values for one entry are separate records, joined by “and”; a condition that tells them apart may be missing. Identical values can stand only once.

System: patients with RRMM
Assay: PAVO Part 3: treatment-emergent adverse events with DARA SC and corticosteroid tapering
Protocol: The PAVO (MMY1004) trial is an open-label, nonrandomized, multicenter, phase lb study consisting of 3 parts. […] Safety was assessed, with an emphasis on IRRs, while corticosteroids were reduced and discontinued.
The purpose of Part 3 was to evaluate the safety of daratumumab 1,800 mg SC delivery without predose and postdose corticosteroids after a 3-week, 2-week, and 1-week tapering schedule to assess the safety of corticosteroid-free SC daratumumab administration. A total of 42 participants were treated. […] In conjunction, patients also received a 3-week, 2-week, or 1-week steroid tapering schedule (FIG. 2). The 3-week tapering schedule (corticosteroid-free by Cycle 1 Day 22) consisted of methylprednisolone (MP) given orally (PO)/IV pre-dose (Cycle 1 Day 1, 100 mg; Cycle 1 Day 8, 60 mg; Cycle 1 Day 15, 30 mg) and PO post-dose (Cycle 1 Day 1, 20 mg for 2 days; Cycle 1 Day 8, 20 mg for 1 day; Cycle 1 Day 15, 20 mg for 1 day). The 2-week tapering schedule (corticosteroid-free by Cycle 1 Day 15) consisted of MP given PO/IV pre-dose (Cycle 1 Day 1, 100 mg; Cycle 1 Day 8, 60 mg) and PO post-dose (Cycle 1 Day 1, 20 mg for 2 days; Cycle 1 Day 8, 20 mg for 1 day). The 1-week tapering schedule (corticosteroid-free by Cycle 1 Day 8) consisted of dexamethasone 20 mg administered IV pre-dose on Cycle 1 Day 1, without post-dose administration.
The 3-week, 2-week and 1-week steroid tapering schedules were assessed by “3+3” design, followed by cohort expansion to approximately 15 patients (3-week and 2-week tapering cohorts) or 12 patients (1-week tapering cohort). The dose-limiting toxicity (DLT) assessment period in the 3-week, 2-week and 1-week tapering cohorts were Cycle 1 Day 1 through Cycle 2 Day 4, Cycle 1 Day 1 through Cycle 1 Day 25, and Cycle 1 Day 1 through Cycle 1 Day 11, respectively. […] Grade 3 or 4 IRRs only qualified as DLTs if they occurred during corticosteroid reduction or discontinuation (not during Cycle 1 Day 1). For the 3-week and 2-week groups, IRRs reported at Cycle 1 Day 1 were not considered DLTs, as corticosteroids had not yet been reduced or discontinued. Up to approximately 12 patients could be enrolled in the 1-week tapering schedule to assess safety, including IRRs.
Safety assessments included treatment-emergent adverse events (TEAEs), serious adverse events, and IRRs. All toxicities were graded according to the National Cancer Institute's Common Terminology for the Classification of Adverse Events (NCI-CTCAE) Version 4.03 (National Cancer Institute. Common Terminology Criteria for Adverse Events (CTCAE): Version 4.03.).
The safety and efficacy populations, defined as all patients who received ≥1 dose of study drug, was the primary population for analysis. […] The pharmacokinetic-evaluable population was defined as all patients who received ≥1 dose of study drug and provided ≥1 post-infusion pharmacokinetic sample. The immunogenicity population was defined as all patients who received ≥1 dose of study drug and provided ≥1 post-infusion immunogenicity sample.

DARA SC: 1,800 mg daratumumab co-formulated with 30,000 U rHuPH20 (2,000 U/mL, 15 mL), manual subcutaneous injection
Grade ≥3 TEAEs, participants (1-week taper): 33.3%
Nausea, participants (1-week taper): 16.7%
Nervous system disorders (1-week taper): 16.7%
Anemia, any grade TEAE (1-week taper n=12): 4 (33.3) n (%) and 4 (33.3%) n (%)
Anemia, grade ≥3 TEAE (1-week taper n=12): 2 (16.7%) n (%) and 2 (16.7) n (%)
Any TEAE (1-week taper n=12): 12 (100)^ n (%) and 12 (100.0%) n (%)
Any grade ≥3 TEAE (1-week taper n=12): 4 (33.3) n (%) and 4 (33.3%) n (%)
Arthralgia, any grade TEAE (1-week taper n=12): 3 (25.0) n (%) and 3 (25.0%) n (%)
Asthenia, any grade TEAE (1-week taper n=12): 4 (33.3) n (%) and 4 (33.3%) n (%)
Back pain, TEAE (1-week taper n=12): 2 (16.7%) n (%)
Blood and lymphatic system disorders (SOC), TEAE (1-week taper n=12): 4 (33.3%) n (%)
Blood and lymphatic system disorders (SOC), grade 3 or higher TEAE (1-week taper n=12): 2 (16.7%) n (%)
Bone pain, TEAE (1-week taper n=12): 2 (16.7%) n (%)
Bone pain, grade ≥3 TEAE (1-week taper n=12): 1 (8.3) n (%) and 1 (8.3%) n (%)
Chills, TEAE (1-week taper n=12): 2 (16.7%) n (%)
Constipation, TEAE (1-week taper n=12): 2 (16.7%) n (%)
Cough, any grade TEAE (1-week taper n=12): 0 n (%)
Decreased appetite, TEAE (1-week taper n=12): 1 (8.3%) n (%)
Diarrhea, any grade TEAE (1-week taper n=12): 4 (33.3) n (%) and 4 (33.3%) n (%)
Dizziness, any grade TEAE (1-week taper n=12): 0 n (%)
Erythema, any grade TEAE (1-week taper n=12): 0 n (%)
Fatigue, any grade TEAE (1-week taper n=12): 1 (8.3) n (%) and 1 (8.3%) n (%)
Gastrointestinal disorders (SOC), TEAE (1-week taper n=12): 8 (66.7%) n (%)
General disorders and administration site conditions (SOC), TEAE (1-week taper n=12): 9 (75.0%) n (%)
Headache, any grade TEAE (1-week taper n=12): 1 (8.3) n (%) and 1 (8.3%) n (%)
Lymphopenia, grade ≥3 TEAE (1-week taper n=12): 1 (8.3) n (%) and 1 (8.3%) n (%)
Metabolism and nutrition disorders (SOC), TEAE (1-week taper n=12): 1 (8.3%) n (%)
Muscle spasms, any grade TEAE (1-week taper n=12): 3 (25.0) n (%)
Musculoskeletal and connective tissue disorders (SOC), TEAE (1-week taper n=12): 8 (66.7%) n (%)
Musculoskeletal and connective tissue disorders (SOC), grade 3 or higher TEAE (1-week taper n=12): 1 (8.3%) n (%)
Nasopharyngitis, any grade TEAE (1-week taper n=12): 1 (8.3) n (%) and 1 (8.3%) n (%)
Nausea, any grade TEAE (1-week taper n=12): 2 (16.7) n (%) and 2 (16.7%) n (%)
Nervous system disorders (SOC), TEAE (1-week taper n=12): 2 (16.7%) n (%)
Neutropenia, grade ≥3 TEAE (1-week taper n=12): 0 n (%)
Oropharyngeal pain, TEAE (1-week taper n=12): 0 n (%)
Pain in extremity, any grade TEAE (1-week taper n=12): 3 (25.0) n (%) and 3 (25.0%) n (%)
Patients with a serious TEAE (1-week taper n=12): 4 (33.3%) n (%)
Peripheral edema, any grade TEAE (1-week taper n=12): 4 (33.3) n (%) and 4 (33.3%) n (%)
Pyrexia, any grade TEAE (1-week taper n=12): 3 (25.0) n (%) and 3 (25.0%) n (%)
Respiratory, thoracic and mediastinal disorders (SOC), TEAE (1-week taper n=12): 1 (8.3%) n (%)
Skin and subcutaneous tissue disorders (SOC), TEAE (1-week taper n=12): 0 n (%)
Vomiting, TEAE (1-week taper n=12): 2 (16.7%) n (%)
TEAEs with an outcome of death (1-week taper, neither treatment-related): 2 participants
Grade 5 TEAEs (1-week taper, staphylococcal pneumonia and pulmonary embolism): 2 (16.7%) n (%)
Grade ≥3 TEAEs, participants (2-week taper): 53.3%
Nausea, participants (2-week taper): 20%
Nervous system disorders (2-week taper): 26.7%
TEAEs with an outcome of death (2-week taper): No deaths
Anemia, any grade TEAE (2-week taper n=15): 2 (13.3) n (%) and 2 (13.3%) n (%)
Anemia, grade ≥3 TEAE (2-week taper n=15): 1 (6.7) n (%) and 1 (6.7%) n (%)
Any TEAE (2-week taper n=15): 15 (100)^ n (%) and 15 (100.0%) n (%)
Any grade ≥3 TEAE (2-week taper n=15): 8 (53.3) n (%) and 8 (53.3%) n (%)
Arthralgia, any grade TEAE (2-week taper n=15): 4 (26.7) n (%) and 4 (26.7%) n (%)
Asthenia, any grade TEAE (2-week taper n=15): 2 (13.3) n (%) and 2 (13.3%) n (%)
Back pain, TEAE (2-week taper n=15): 3 (20.0%) n (%)
Blood and lymphatic system disorders (SOC), TEAE (2-week taper n=15): 3 (20.0%) n (%)
Blood and lymphatic system disorders (SOC), grade 3 or higher TEAE (2-week taper n=15): 3 (20.0%) n (%)
Bone pain, TEAE (2-week taper n=15): 3 (20.0%) n (%)
Bone pain, grade ≥3 TEAE (2-week taper n=15): 1 (6.7) n (%) and 1 (6.7%) n (%)
Chills, TEAE (2-week taper n=15): 1 (6.7%) n (%)
Constipation, TEAE (2-week taper n=15): 3 (20.0%) n (%)
Cough, any grade TEAE (2-week taper n=15): 4 (26.7) n (%) and 4 (26.7%) n (%)
Decreased appetite, TEAE (2-week taper n=15): 1 (6.7%) n (%)
Diarrhea, any grade TEAE (2-week taper n=15): 3 (20.0) n (%) and 3 (20.0%) n (%)
Dizziness, any grade TEAE (2-week taper n=15): 1 (6.7) n (%) and 1 (6.7%) n (%)
Erythema, any grade TEAE (2-week taper n=15): 4 (26.7) n (%) and 4 (26.7%) n (%)
Fatigue, any grade TEAE (2-week taper n=15): 4 (26.7) n (%) and 4 (26.7%) n (%)
Gastrointestinal disorders (SOC), TEAE (2-week taper n=15): 7 (46.7%) n (%)
General disorders and administration site conditions (SOC), TEAE (2-week taper n=15): 10 (66.7%) n (%)
Headache, any grade TEAE (2-week taper n=15): 1 (6.7) n (%) and 1 (6.7%) n (%)
Lymphopenia, grade ≥3 TEAE (2-week taper n=15): 0 n (%)
Metabolism and nutrition disorders (SOC), TEAE (2-week taper n=15): 4 (26.7%) n (%)
Muscle spasms, any grade TEAE (2-week taper n=15): 0 n (%)
Musculoskeletal and connective tissue disorders (SOC), TEAE (2-week taper n=15): 9 (60.0%) n (%)
Musculoskeletal and connective tissue disorders (SOC), grade 3 or higher TEAE (2-week taper n=15): 1 (6.7%) n (%)
Nasopharyngitis, any grade TEAE (2-week taper n=15): 5 (33.3) n (%) and 5 (33.3%) n (%)
Nausea, any grade TEAE (2-week taper n=15): 3 (20.0) n (%) and 3 (20.0%) n (%)
Nervous system disorders (SOC), TEAE (2-week taper n=15): 4 (26.7%) n (%)
Neutropenia, grade ≥3 TEAE (2-week taper n=15): 3 (20.0) n (%) and 3 (20.0%) n (%)
Oropharyngeal pain, TEAE (2-week taper n=15): 3 (20.0%) n (%)
Pain in extremity, any grade TEAE (2-week taper n=15): 1 (6.7) n (%) and 1 (6.7%) n (%)
Patients with a serious TEAE (2-week taper n=15): 6 (40.0%) n (%)
Peripheral edema, any grade TEAE (2-week taper n=15): 0 n (%)
Pyrexia, any grade TEAE (2-week taper n=15): 2 (13.3) n (%) and 2 (13.3%) n (%)
Respiratory, thoracic and mediastinal disorders (SOC), TEAE (2-week taper n=15): 8 (53.3%) n (%)
Skin and subcutaneous tissue disorders (SOC), TEAE (2-week taper n=15): 5 (33.3%) n (%)
Vomiting, TEAE (2-week taper n=15): 2 (13.3%) n (%)
Grade 5 TEAEs (2-week taper, general physical health deterioration): 1 (6.7%) n (%)
